The data set can be described thus: total protein half-life in vivo (active degradation + dilution); higher = more stable protein.
Setting [1] is: E. coli NCM3722 delta-clpP delta-lon delta-hslV, growth: N-lim chemostat, doubling time 6 h.
[2] abbreviates: E. coli NCM3722 delta-clpP, growth: N-lim chemostat, doubling time 6 h.
Where [3] appears, read: E. coli NCM3722 delta-hslV, growth: N-lim chemostat, doubling time 6 h.
Setting [4] is: E. coli NCM3722 delta-lon, growth: N-lim chemostat, doubling time 6 h.
The mark [5] stands for this setting: E. coli NCM3722 delta-smpB, growth: N-lim chemostat, doubling time 6 h.
Setting [6] is: wild type E. coli NCM3722, growth: C-lim chemostat, doubling time 3 h.
The mark [7] stands for this setting: wild type E. coli NCM3722, growth: C-lim chemostat, doubling time 6 h.
Setting [8] is: wild type E. coli NCM3722, growth: C-lim chemostat, doubling time 12 h.
The mark [9] stands for this setting: wild type E. coli NCM3722, growth: N-lim chemostat, doubling time 6 h.
The mark [10] stands for this setting: wild type E. coli NCM3722, growth: N-lim chemostat, doubling time 12 h.
The mark [11] stands for this setting: wild type E. coli NCM3722, growth: P-lim chemostat, doubling time 6 h.
Where [12] appears, read: wild type E. coli NCM3722, growth: P-lim chemostat, doubling time 12 h.

± gives the standard deviation of the averaged measurements.

Regarding “MIYPDEAMLYAPVEWHDCSEGFEDIRYEKSTDGIAKITINRPQVRNAFRPLTVKEMIQALADARYDDNIGVIILTGAGDKAFCSGGDQKVRGDYGGYKDDSGVHHLNVLDFQRQIRTCPKPVVAMVAGYSIGGGHVLHMMCDLTIAADNAIFGQTGPKVGSFDGGWGASYMARIVGQKKAREIWFLCRQYDAKQALDMGLVNTVVPLADLEKETVRWCREMLQNSPMALRCLKAALNADCDGQAGLQELAGNATMLFYMTEEGQEGRNAFNQKRQPDFSKFKRNP [P0ABU0]”, the “total protein half-life in vivo” value under setting [1] was determined as 4.73 ± 0.74 h; the “total protein half-life in vivo” value under setting [2] was found to be 4.048 ± 0.036 h; the “total protein half-life in vivo” value under setting [3] was 4.15 ± 0.17 h; the “total protein half-life in vivo” value under setting [4] worked out at 4.48 ± 0.44 h; the “total protein half-life in vivo” value under setting [5] came out at 3.8 ± 0.061 h; the “total protein half-life in vivo” value under setting [6] came to 2.9 ± 0.51 h. Moreover, the “total protein half-life in vivo” value is 5.55 ± 0.53 h under setting [7]; 9.64 ± 0.8 h under setting [8]; 3.88 ± 0.12 h under setting [9]; 6.07 ± 0.33 h under setting [10]; 5.58 ± 0.069 h under setting [11]; 10.85 ± 0.06 h under setting [12].

In the case of “MITLWGRNNSTNVKKVLLTLEELELPYEQILAGREFGINHDADFLAMNPNGLVPLLRDDESDLILWESNAIVRYLAAQYGQKRLWIDSPARRAEAEKWMDWANQTLSNAHRGILMGLVRTPPEERDQAAIDASCKECDALFALLDAELAKVKWFSGDEFGVGDIAIAPFIYNLFNVGLTWTPRPNLQRWYQQLTERPAVRKVVMIPVS [P0ACA7]”, the “total protein half-life in vivo” value is, setting by setting: under setting [1], 5.15 ± 0.42 h; under setting [2], 4.47 ± 0.4 h; under setting [3], 5.27 ± 1.5 h; under setting [4], 4.6 ± 0.45 h; under setting [5], 4.53 ± 0.24 h; under setting [6], 2.9 ± 0.27 h. The “total protein half-life in vivo” value under setting [7] worked out at 6.21 ± 0.49 h; the “total protein half-life in vivo” value under setting [8] came out at 9.3 ± 0.54 h; the “total protein half-life in vivo” value under setting [9] came to 4.49 ± 0.48 h; the “total protein half-life in vivo” value under setting [10] was 7.89 ± 0.23 h; the “total protein half-life in vivo” value under setting [11] is 5.74 ± 0.36 h; the “total protein half-life in vivo” value under setting [12] is 12.1 ± 0.25 h.

As to “MIEFSHVSKLFGAQKAVNDLNLNFQEGSFSVLIGTSGSGKSTTLKMINRLVEHDSGEIRFAGEEIRSLPVLELRRRMGYAIQSIGLFPHWSVAQNIATVPQLQKWSRARIDDRIDELMALLGLESNLRERYPHQLSGGQQQRVGVARALAADPQVLLMDEPFGALDPVTRGALQQEMTRIHRLLGRTIVLVTHDIDEALRLAEHLVLMDHGEVVQQGNPLTMLTRPANDFVRQFFGRSELGVRLLSLRSVADYVRREERADGEALAEEMTLRDALSLFVARGCEVLPVVNMQGQPCGTLHFQDLLVEA”, the “total protein half-life in vivo” value reads like this: under setting [1], 5.87 ± 0.78 h; under setting [2], 5.31 ± 0.036 h; under setting [4], 4.82 h; under setting [5], 4.51 ± 0.06 h; under setting [6], 2.77 ± 0.11 h; under setting [7], 4.96 ± 0.22 h. Moreover, the “total protein half-life in vivo” value runs as follows: under setting [8], 8.02 ± 0.57 h; under setting [9], 5.05 ± 0.085 h; under setting [10], 7.777 ± 0.046 h; under setting [11], 4.85 ± 0.33 h; under setting [12], 8.835 ± 0.04 h.

With “MTTIVSVRRNGHVVIAGDGQATLGNTVMKGNVKKVRRLYNDKVIAGFAGGTADAFTLFELFERKLEMHQGHLVKAAVELAKDWRTDRMLRKLEALLAVADETASLIITGNGDVVQPENDLIAIGSGGPYAQAAARALLENTELSAREIAEKALDIAGDICIYTNHFHTIEELSYKA [P0A7B8]”, the “total protein half-life in vivo” value is, setting by setting: under setting [2], 5.42 ± 0.062 h; under setting [4], 6.49 ± 0.19 h; under setting [5], 5.3 ± 0.5 h; under setting [6], 2.72 ± 0.33 h; under setting [7], 6.23 ± 0.091 h; under setting [8], 10.2 ± 1.4 h. For the same sequence, the “total protein half-life in vivo” value by setting is: under setting [9], 5.716 ± 0.023 h; under setting [10], 9.85 ± 1 h; under setting [11], 5.74 ± 0.23 h.

On to “MTEQQKLTFTALQQRLDSLMLRDRLRFSRRLHGVKKVKNPDAQQAIFQEMAKEIDQAAGKVLLREAARPEITYPDNLPVSQKKQDILEAIRDHQVVIVAGETGSGKTTQLPKICMELGRGIKGLIGHTQPRRLAARTVANRIAEELKTEPGGCIGYKVRFSDHVSDNTMVKLMTDGILLAEIQQDRLLMQYDTIIIDEAHERSLNIDFLLGYLKELLPRRPDLKIIITSATIDPERFSRHFNNAPIIEVSGRTYPVEVRYRPIVEEADDTERDQLQAIFDAVDELSQESHGDILIFMSGEREIRDTADALNKLNLRHTEILPLYARLSNSEQNRVFQSHSGRRIVLATNVAETSLTVPGIKYVIDPGTARISRYSYRTKVQRLPIEPISQASANQRKGRCGRVSEGICIRLYSEDDFLSRPEFTDPEILRTNLASVILQMTALGLGDIAAFPFVEAPDKRNIQDGVRLLEELGAITTDEQASAYKLTPLGRQLSQLPVDPRLARMVLEAQKHGCVREAMIITSALSIQDPRERPMDKQQASDEKHRRFHDKESDFLAFVNLWNYLGEQQKALSSNAFRRLCRTDYLNYLRVREWQDIYTQLRQVVKELGIPVNSEPAEYREIHIALLTGLLSHIGMKDADKQEYTGARNARFSIFPGSGLFKKPPKWVMVAELVETSRLWGRIAARIDPEWVEPVAQHLIKRTYSEPHWERAQGAVMATEKVTVYGLPIVAARKVNYSQIDPALCRELFIRHALVEGDWQTRHAFFRENLKLRAEVEELEHKSRRRDILVDDETLFEFYDQRISHDVISARHFDSWWKKVSRETPDLLNFEKSMLIKEGAEKISKLDYPNFWHQGNLKLRLSYQFEPGADADGVTVHIPLPLLNQVEESGFEWQIPGLRRELVIALIKSLPKPVRRNFVPAPNYAEAFLGRVKPLELPLLDSLERELRRMTGVTVDREDWHWDQVPDHLKITFRVVDDKNKKLKEGRSLQDLKDALKGKVQETLSAVADDGIEQSGLHIWSFGQLPESYEQKRGNYKVKAWPALVDERDSVAIKLFDNPLEQKQAMWNGLRRLLLLNIPSPIKYLHEKLPNKAKLGLYFNPYGKVLELIDDCISCGVDKLIDANGGPVWTEEGFAALHEKVRAELNDTVVDIAKQVEQILTAVFNINKRLKGRVDMTMALGLSDIKAQMGGLVYRGFVTGNGFKRLGDTLRYLQAIEKRLEKLAVDPHRDRAQMLKVENVQQAWQQWINKLPPARREDEDVKEIRWMIEELRVSYFAQQLGTPYPISDKRILQAMEQISG”, for which the “total protein half-life in vivo” value is, setting by setting: under setting [1], 6.34 ± 0.51 h; under setting [2], 6.5 ± 1.2 h; under setting [3], 5.99 ± 0.13 h; under setting [4], 5.89 ± 0.89 h; under setting [5], 5.46 ± 0.8 h; under setting [6], 3.53 ± 0.13 h. The “total protein half-life in vivo” value stood at 6.34 ± 0.23 h under setting [7]; 12.8 ± 1.3 h under setting [8]; 5.66 ± 0.1 h under setting [9]; 11.2 ± 0.78 h under setting [10]; 5.71 ± 0.12 h under setting [11]; 11.3 ± 0.18 h under setting [12].

Source of the values: the supplement of paper PMC11246515.
